Data published in the supplement of paper PMC7877785.
± gives the uncertainty stated by the source.

Assay: self-splicing fitness, log relative to wild type (ln ratio); higher = more splicing; Tetrahymena group I intron in knt gene, E. coli kanamycin selection, DiMSum; sequences stand for … in CUCUCU…GGAGGGAAAAGUUAUCAGGCAUGCACCUGGUAGCUAGUCUUUAAACCAAUAGAUUGCAUCGGUUUAAAAGGCAAGACCGUCAAAUUGCGGGAAAGGGGUCAACAGCCGUUCAGUACCAAGUCUCAGGGGAAACUUUGAGAUGGCCUUGCAAAGGGUAUGGUAAUAAGCUGACGGACAUGGUCCUAACCACGCAGCCAAGUCCUAAGUCAACAGAUCUUCUGUUGAUAUGGAUGCAGUUCACAGACUAAAUGUCGGUCGGGGAAGAUGUAUUCUUCUCAUAAGAUAUAGUCGGACCUCUCCUUAAUGGGAGCUAGCGGAUGAAGUGAUGCAACACUGGAGCCGCUGGGAACUAAUUUGUAUGCGAAAGUAUAUUGAUUAGUUUUGGAGUACUCGUGGUCG
How it was run: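 Six replicate transformations of E. coli BL21(DE3) with a pET-22b(+) library were grown overnight at 37°C or 30°C. The library randomised all eight P1ex-region intron nucleotides, the intron lying in the knt kanamycin-resistance gene, and plates were LB agar with or without 25 μg/mL kanamycin plus 100 μg/mL carbenicillin, 50 μM IPTG and 0.2% rhamnose. Pooled colonies were amplicon-sequenced on an Illumina HiSeq 2500, and fitness is the DiMSum error-weighted combination of wild-type-normalised replicate fold changes, kanamycin versus none.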

Row | Sequence | self-splicing fitness (ln) (30 °C) | self-splicing fitness (ln) (37 °C)
1 | GGAGAGCAAUAUUACGGUGC | -3.03 ± 0.12 | -1.57 ± 0.11
2 | GGAGAGCAAUAUUACGGUUU | -2.6 ± 0.094 | -1.15 ± 0.092
3 | GGAGAGCAAUAUUACGUACA | – | -1.61 ± 0.47
4 | GGAGAGCAAUAUUACGUCGC | -1.99 ± 0.39 | 0.588 ± 0.38
5 | GGAGAGCAAUAUUACGUGGA | – | -3.26 ± 0.32
6 | GGAUAGCAAUAUUACGAGAC | -2.63 ± 0.25 | -2.63 ± 0.48
7 | GGAUAGCAAUAUUACGAUAG | -2.63 ± 0.23 | -2.86 ± 0.47
8 | GGAUAGCAAUAUUACGCAAU | -1.83 ± 0.41 | -0.704 ± 0.23
9 | GGAUAGCAAUAUUACGCGGG | -3.3 ± 0.17 | -0.931 ± 0.11
10 | GGAUAGCAAUAUUACGCUAA | -2.07 ± 0.16 | -1.03 ± 0.22
11 | GGAUAGCAAUAUUACGGAAG | -3.41 ± 0.26 | -2.85 ± 0.24
12 | GGAUAGCAAUAUUACGGAAU | -2.48 ± 0.17 | -2.33 ± 0.24
13 | GGAUAGCAAUAUUACGGCGU | 0.322 ± 0.093 | 0.626 ± 0.1
14 | GGAUAGCAAUAUUACGGGCA | -2.6 ± 0.26 | -0.844 ± 0.11
15 | GGAUAGCAAUAUUACGGUAC | -1.59 ± 0.14 | 0.179 ± 0.13
16 | GGAUAGCAAUAUUACGGUGU | -1.3 ± 0.059 | -1.05 ± 0.083
17 | GGAUAGCAAUAUUACGGUUC | -2.54 ± 0.23 | -2.05 ± 0.28
18 | GGAUAGCAAUAUUACGUAAU | -1.99 ± 0.13 | -0.617 ± 0.14
19 | GGAUAGCAAUAUUACGUACG | -0.84 ± 0.21 | -0.97 ± 0.25
20 | GGAUAGCAAUAUUACGUCGA | -0.726 ± 0.1 | -0.0349 ± 0.098
21 | GGAUAGCAAUAUUACGUGAA | -1.83 ± 0.07 | -1.13 ± 0.081

Row | Sequence | self-splicing fitness (ln) (30 °C) | self-splicing fitness (ln) (37 °C)
22 | GGAUAGCAAUAUUACGUGCU | -1.26 ± 0.085 | -1.21 ± 0.12
23 | GGAUAGCAAUAUUACGUUCA | -0.502 ± 0.1 | -0.00255 ± 0.15
24 | GGAUAGCAAUAUUACGUUCU | -1.88 ± 0.15 | -2.27 ± 0.24
25 | GGAUAGCAAUAUUACGUUGG | -2.7 ± 0.16 | -2.17 ± 0.22
26 | GGCAAGCAAUAUUACGAAGG | -3.36 ± 0.17 | -2.05 ± 0.19
27 | GGCAAGCAAUAUUACGACAA | -0.0702 ± 0.12 | -0.492 ± 0.13
28 | GGCAAGCAAUAUUACGACAG | -3.74 ± 0.22 | -2.63 ± 0.24
29 | GGCAAGCAAUAUUACGACCA | -1.23 ± 0.12 | -0.321 ± 0.13
30 | GGCAAGCAAUAUUACGACUA | -0.26 ± 0.13 | 0.336 ± 0.14
31 | GGCAAGCAAUAUUACGCACU | -0.587 ± 0.06 | -0.483 ± 0.075
32 | GGCAAGCAAUAUUACGCAGU | -1.88 ± 0.12 | -1.43 ± 0.13
33 | GGCAAGCAAUAUUACGCCAC | -3.87 ± 0.43 | –
34 | GGCAAGCAAUAUUACGCCUA | -1.04 ± 0.14 | -1.19 ± 0.13
35 | GGCAAGCAAUAUUACGCCUG | – | -0.621 ± 0.47
36 | GGCAAGCAAUAUUACGCGCG | -0.499 ± 0.065 | -0.495 ± 0.081
37 | GGCAAGCAAUAUUACGCUCG | -1.66 ± 0.12 | -1.4 ± 0.19
38 | GGCAAGCAAUAUUACGGACG | -0.442 ± 0.089 | -0.416 ± 0.086
39 | GGCAAGCAAUAUUACGGAUU | -0.462 ± 0.11 | -0.427 ± 0.13
40 | GGCAAGCAAUAUUACGGCAA | 0.2 ± 0.086 | 0.388 ± 0.12
41 | GGCAAGCAAUAUUACGGCGC | -0.3 ± 0.082 | -0.265 ± 0.12
42 | GGCAAGCAAUAUUACGGCUA | -0.251 ± 0.11 | 1.23 ± 0.15

Row | Sequence | self-splicing fitness (ln) (30 °C) | self-splicing fitness (ln) (37 °C)
43 | GGCAAGCAAUAUUACGGCUC | -2.55 ± 0.25 | -0.854 ± 0.21
44 | GGCAAGCAAUAUUACGGCUU | -0.985 ± 0.074 | 0.644 ± 0.12
45 | GGCAAGCAAUAUUACGGGAG | -2.47 ± 0.15 | -1.44 ± 0.18
46 | GGCAAGCAAUAUUACGGUGC | -2.87 ± 0.16 | -1.77 ± 0.17
47 | GGCAAGCAAUAUUACGUAAA | -0.188 ± 0.089 | -0.267 ± 0.1
48 | GGCAAGCAAUAUUACGUACG | -0.191 ± 0.058 | 0.428 ± 0.075
49 | GGCAAGCAAUAUUACGUCGU | -0.68 ± 0.097 | 0.0841 ± 0.11
50 | GGCAAGCAAUAUUACGUCUC | -0.496 ± 0.087 | 0.539 ± 0.12
51 | GGCAAGCAAUAUUACGUGAC | -1.6 ± 0.12 | -0.479 ± 0.14
52 | GGCAAGCAAUAUUACGUGAG | -1.21 ± 0.059 | -0.0615 ± 0.08
53 | GGCAAGCAAUAUUACGUGCG | -1.57 ± 0.1 | -0.197 ± 0.099
54 | GGCAAGCAAUAUUACGUGCU | -3.91 ± 0.16 | -2.99 ± 0.2
55 | GGCAAGCAAUAUUACGUGUA | -0.7 ± 0.049 | -0.0721 ± 0.057
56 | GGCAAGCAAUAUUACGUGUG | -0.694 ± 0.062 | -0.126 ± 0.071
57 | GGCCAGCAAUAUUACGAAAU | -2.92 ± 0.34 | -1.04 ± 0.18
58 | GGCCAGCAAUAUUACGAACC | 0.576 ± 0.31 | -0.0497 ± 0.4
59 | GGCCAGCAAUAUUACGACAC | -0.242 ± 0.1 | 0.0601 ± 0.17
60 | GGCCAGCAAUAUUACGAGCG | -0.269 ± 0.098 | 0.191 ± 0.13
61 | GGCCAGCAAUAUUACGAUCA | -2.93 ± 0.25 | -1.53 ± 0.16
